Test system: [H][C@@]12COP(=O)(O)O[C@@]1([H])[C@@H](O)[C@H](n1cnc3c(=O)[nH]c(N)nc31)O2
Assay: TP_TRANSPORTER: uptake in membrane vesicles from MRP5-expressing V79 cells
Format: functional, cell membranes, Membrane vesicle

“ATP-binding cassette sub-family C member 5 (Homo sapiens)” was tested, and the Km was 2.1 µM.

Source: ChEMBL document CHEMBL2074325, “The multidrug resistance protein 5 functions as an ATP-dependent export pump for cyclic nucleotides” (J Biol Chem, 2000)
